We go through 38 sequences from the supplement of paper PMC7877785.

The series is described as follows: self-splicing fitness, log relative to wild type (ln ratio); higher = more splicing; Tetrahymena group I intron in knt gene, E. coli kanamycin selection, DiMSum; sequences stand for … in CUCUCU…GGAGGGAAAAGUUAUCAGGCAUGCACCUGGUAGCUAGUCUUUAAACCAAUAGAUUGCAUCGGUUUAAAAGGCAAGACCGUCAAAUUGCGGGAAAGGGGUCAACAGCCGUUCAGUACCAAGUCUCAGGGGAAACUUUGAGAUGGCCUUGCAAAGGGUAUGGUAAUAAGCUGACGGACAUGGUCCUAACCACGCAGCCAAGUCCUAAGUCAACAGAUCUUCUGUUGAUAUGGAUGCAGUUCACAGACUAAAUGUCGGUCGGGGAAGAUGUAUUCUUCUCAUAAGAUAUAGUCGGACCUCUCCUUAAUGGGAGCUAGCGGAUGAAGUGAUGCAACACUGGAGCCGCUGGGAACUAAUUUGUAUGCGAAAGUAUAUUGAUUAGUUUUGGAGUACUCGUGGUCG
Put shortly: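 Pooled colonies went to amplicon sequencing on an Illumina HiSeq 2500 after six replicate transformations. The plates were LB agar with 100 μg/mL carbenicillin, 50 μM IPTG and 0.2% rhamnose, with or without 25 μg/mL kanamycin, incubated overnight at 37°C or 30°C. The E. coli BL21(DE3) library had all eight P1ex-region intron nucleotides randomised, the intron placed in the knt kanamycin-resistance gene on pET-22b(+). DiMSum fitness is the error-weighted combination of replicate fold changes, kanamycin against none, normalised to wild type.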

± gives the uncertainty stated by the source.

GCAUAGCAAUAUUACGACCC: the “self-splicing fitness (ln)” value (30 °C) was -0.0863 ± 0.27 and the “self-splicing fitness (ln)” value (37 °C) amounted to 0.324 ± 0.39.

For the sequence UCAUAGCAAUAUUACGUCUG, the “self-splicing fitness (ln)” value runs as follows: (30 °C) -1.16 ± 0.081; (37 °C) -0.895 ± 0.1.

For CCACAGCAAUAUUACGAUAA, the “self-splicing fitness (ln)” value reads like this: (30 °C) -3.11 ± 0.25; (37 °C) -2.75 ± 0.32.

For the sequence ACAAAGCAAUAUUACGAGAA, the “self-splicing fitness (ln)” value was -2.54 ± 0.28 (30 °C) and -2.87 ± 0.35 (37 °C).

Regarding UCAUAGCAAUAUUACGUCUU, the “self-splicing fitness (ln)” value runs as follows: (30 °C) -3.28 ± 0.24; (37 °C) -3.53 ± 0.32.

With AAUGAGCAAUAUUACGGCGU, the “self-splicing fitness (ln)” value runs as follows: (30 °C) -1.43 ± 0.07; (37 °C) -0.25 ± 0.097.

CAACAGCAAUAUUACGAAUC: the “self-splicing fitness (ln)” value (30 °C) was -3.47 ± 0.13 and the “self-splicing fitness (ln)” value (37 °C) is -2.41 ± 0.14.

On to GCUGAGCAAUAUUACGGGUU, for which the “self-splicing fitness (ln)” value by setting is: (30 °C) -3.5 ± 0.15; (37 °C) -3.05 ± 0.13.

In the case of UUUAAGCAAUAUUACGUCCA, the “self-splicing fitness (ln)” value was -1.08 ± 0.22 (30 °C) and -0.324 ± 0.27 (37 °C).

With AAGGAGCAAUAUUACGGGGU, the “self-splicing fitness (ln)” value (30 °C) was -3.61 ± 0.18 and the “self-splicing fitness (ln)” value (37 °C) is -2.31 ± 0.15.

GAUAAGCAAUAUUACGUAUG: the “self-splicing fitness (ln)” value is, setting by setting: (30 °C) -1.53 ± 0.11; (37 °C) -1.37 ± 0.1.

Take UUGUAGCAAUAUUACGCCGG: the “self-splicing fitness (ln)” value runs as follows: (30 °C) -0.988 ± 0.16; (37 °C) -0.179 ± 0.27.

As to CCACAGCAAUAUUACGAAAA, the “self-splicing fitness (ln)” value (30 °C) is -3.8 ± 0.27 and the “self-splicing fitness (ln)” value (37 °C) was -2.58 ± 0.22.

Consider UGUCAGCAAUAUUACGCGCA, for which the “self-splicing fitness (ln)” value is -1.67 ± 0.13 (30 °C) and -0.608 ± 0.14 (37 °C).

For the sequence UCACAGCAAUAUUACGCGGA, the “self-splicing fitness (ln)” value is -1.81 ± 0.18 (30 °C) and -2.12 ± 0.27 (37 °C).

Regarding CGGGAGCAAUAUUACGAUGU, the “self-splicing fitness (ln)” value is, setting by setting: (30 °C) -2.47 ± 0.39; (37 °C) -2.53 ± 0.39.

Regarding CUAAAGCAAUAUUACGCAGU, the “self-splicing fitness (ln)” value is, setting by setting: (30 °C) -3.13 ± 0.31; (37 °C) -3.43 ± 0.32.

Take AGCGAGCAAUAUUACGACAA: the “self-splicing fitness (ln)” value reads like this: (30 °C) -3.33 ± 0.41; (37 °C) -1.23 ± 0.3.

As for UACAAGCAAUAUUACGAGCG, the “self-splicing fitness (ln)” value reads like this: (30 °C) -0.155 ± 0.074; (37 °C) -0.0756 ± 0.099.

On to GUGGAGCAAUAUUACGUGUC, for which the “self-splicing fitness (ln)” value by setting is: (30 °C) -3.84 ± 0.22; (37 °C) -2.64 ± 0.24.

For the sequence AAUAAGCAAUAUUACGUUUA, the “self-splicing fitness (ln)” value reads like this: (30 °C) -2.05 ± 0.084; (37 °C) -1.3 ± 0.096.

Consider UGGCAGCAAUAUUACGGCUA, for which the “self-splicing fitness (ln)” value is, setting by setting: (30 °C) -0.191 ± 0.15; (37 °C) -0.128 ± 0.19.

Take CACCAGCAAUAUUACGUAGG: the “self-splicing fitness (ln)” value is -0.739 ± 0.05 (30 °C) and -0.0785 ± 0.074 (37 °C).

Regarding ACCAAGCAAUAUUACGCGUC, the “self-splicing fitness (ln)” value (30 °C) was -3.45 ± 0.2 and the “self-splicing fitness (ln)” value (37 °C) was -2.46 ± 0.22.

Consider CUUAAGCAAUAUUACGUUAG, for which the “self-splicing fitness (ln)” value (30 °C) is -3.59 ± 0.23 and the “self-splicing fitness (ln)” value (37 °C) is -1.59 ± 0.17.

For the sequence UCAAAGCAAUAUUACGUGGU, the “self-splicing fitness (ln)” value is, setting by setting: (30 °C) -4.25 ± 0.26; (37 °C) -2.19 ± 0.18.

As for CGAAAGCAAUAUUACGCACC, the “self-splicing fitness (ln)” value runs as follows: (30 °C) -1.17 ± 0.14; (37 °C) -0.396 ± 0.19.

Take GAUCAGCAAUAUUACGCACG: the “self-splicing fitness (ln)” value is, setting by setting: (30 °C) -0.77 ± 0.076; (37 °C) 0.0829 ± 0.077.

On to UAUGAGCAAUAUUACGAUCA, for which the “self-splicing fitness (ln)” value (30 °C) was -2.24 ± 0.16 and the “self-splicing fitness (ln)” value (37 °C) is -1.27 ± 0.14.

For UAAUAGCAAUAUUACGGUCG, the “self-splicing fitness (ln)” value was -0.872 ± 0.1 (30 °C) and 0.313 ± 0.11 (37 °C).

As for UAAUAGCAAUAUUACGGGGA, the “self-splicing fitness (ln)” value is, setting by setting: (30 °C) -1.91 ± 0.15; (37 °C) -2.65 ± 0.34.

Take AAUUAGCAAUAUUACGAGUC: the “self-splicing fitness (ln)” value (37 °C) is -1.9 ± 0.36.

AUACAGCAAUAUUACGUCCA: the “self-splicing fitness (ln)” value by setting is: (30 °C) -1.17 ± 0.08; (37 °C) -0.0617 ± 0.086.

In the case of GUGCAGCAAUAUUACGCCAG, the “self-splicing fitness (ln)” value (30 °C) is -2.82 ± 0.47.

Consider AUUCAGCAAUAUUACGCAGU, for which the “self-splicing fitness (ln)” value is -2.18 ± 0.17 (30 °C) and 0.359 ± 0.15 (37 °C).

Consider AUGCAGCAAUAUUACGCUUG, for which the “self-splicing fitness (ln)” value (30 °C) is -3.06 ± 0.12 and the “self-splicing fitness (ln)” value (37 °C) is -2.85 ± 0.18.

In the case of AUCAAGCAAUAUUACGCCCU, the “self-splicing fitness (ln)” value by setting is: (30 °C) 0.228 ± 0.14; (37 °C) 0.617 ± 0.18.

Turning to GGAUAGCAAUAUUACGCAUU, the “self-splicing fitness (ln)” value (30 °C) is -3.51 ± 0.32 and the “self-splicing fitness (ln)” value (37 °C) was -1.65 ± 0.22.
